Patent publication US20070098681A1
Several values for one entry are separate records, joined by “and”; a condition that tells them apart may be missing. Equal values may be shown once.

Experiments:
DR5-IgG (human) [1] = assay: method not stated; against zinc-bound Apo-2L
DR5-IgG (human) [2] = assay: phage bound and eluted from DR5-IgG coated well against blank well; phage grown at 37 C

Substance “Apo-2L after removal of the bound metal by dialysis against chelating agents (ligand)” has a fold decrease in DR5 affinity (DR5-IgG (human) [1]) of 7 fold.
In the case of “wild-type Apo2L/TRAIL (residues 96-281) displayed on M13 phage (ligand)”, the Enrichment (ratio (DR5-IgG well / blank well)) (DR5-IgG (human) [2]) is reported as 1.5 and 3.3.
